# Source: article PMC9508527, “Two-component carnitine monooxygenase from Escherichia coli: functional characterization, inhibition and mutagenesis of the molecular interface” (Bioscience Reports, 2022)
# Residue numbers refer to the chain shown, from its start.
# T1: YeaW variant E330K (E. coli, UniProt P0ABR7 1-374, E330K)
# T1 sequence (looked up): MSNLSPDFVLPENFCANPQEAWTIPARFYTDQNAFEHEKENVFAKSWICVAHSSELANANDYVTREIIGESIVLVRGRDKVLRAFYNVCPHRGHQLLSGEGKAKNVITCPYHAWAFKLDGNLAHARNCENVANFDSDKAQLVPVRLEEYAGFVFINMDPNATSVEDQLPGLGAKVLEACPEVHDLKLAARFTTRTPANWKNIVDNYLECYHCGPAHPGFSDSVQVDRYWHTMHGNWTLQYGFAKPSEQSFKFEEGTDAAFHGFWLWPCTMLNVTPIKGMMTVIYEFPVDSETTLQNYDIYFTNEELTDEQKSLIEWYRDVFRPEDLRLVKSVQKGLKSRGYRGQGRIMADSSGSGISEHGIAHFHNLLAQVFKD
# T2: YeaW variant K138E (E. coli, UniProt P0ABR7 1-374, K138E)
# T2 sequence (looked up): T1 sequence (looked up) with K138E, K330E
# T3: YeaW variant K104E (E. coli, UniProt P0ABR7 1-374, K104E)
# T3 sequence (looked up): T1 sequence (looked up) with K104E, K330E
# T4: YeaW variant K138S (E. coli, UniProt P0ABR7 1-374, K138S)
# T4 sequence (looked up): T1 sequence (looked up) with K138S, K330E
# T5: YeaW variant D221K (E. coli, UniProt P0ABR7 1-374, D221K)
# T5 sequence (looked up): T1 sequence (looked up) with D221K, K330E
# T6: YeaW variant K104S (E. coli, UniProt P0ABR7 1-374, K104S)
# T6 sequence (looked up): T1 sequence (looked up) with K104S, K330E
# T7: YeaW variant D221S (E. coli, UniProt P0ABR7 1-374, D221S)
# T7 sequence (looked up): T1 sequence (looked up) with D221S, K330E
# B1: YeaX, reductase component of carnitine monooxygenase from E. coli (enzyme, UniProt P76254 1-321, looked up)
# chain: MSDYQMFEVQVSQVEPLTEQVKRFTLVATDGKPLPAFTGGSHVIVQMSDGDNQYSNAYSLLSSPHDTSCYQIAVRLEENSRGGSRFLHQQVKVGDRLTISTPNNLFALIPSARKHLFIAGGIGITPFLSHMAELQHSDVDWQLHYCSRNPESCAFRDELVQHPQAEKVHLHHSSTGTRLELARLLADIEPGTHVYTCGPEALIEAVRSEAARLDIAADTLHFEQFAIEDKTGDAFTLVLARSGKEFVVPEEMTILQVIENNKAAKVECLCREGVCGTCETAILEGEADHRDQYFSDEERASQQSMLICCSRAKGKRLVLDL
# How the values were obtained:
# Experiment in all cases: cell-based or functional assay
# YeaW variant E330K = target: T1, YeaW variant E330K
# YeaW variant K138E = target: T2, YeaW variant K138E
# YeaW variant K104E = target: T3, YeaW variant K104E
# YeaW variant K138S = target: T4, YeaW variant K138S
# YeaW variant D221K = target: T5, YeaW variant D221K
# YeaW variant K104S = target: T6, YeaW variant K104S
# YeaW variant D221S = target: T7, YeaW variant D221S
binder,measurement,setting,value
B1,L-carnitine depletion activity (wild type = 100%),YeaW variant E330K,55%
same,O2 depletion activity (wild type = 100%),YeaW variant E330K,67%
same,L-carnitine depletion activity (wild type = 100%),YeaW variant K138E,100%
same,O2 depletion activity (wild type = 100%),YeaW variant K138E,102%
same,L-carnitine depletion activity (wild type = 100%),YeaW variant K104E,6%
same,O2 depletion activity (wild type = 100%),YeaW variant K104E,12%
same,L-carnitine depletion activity (wild type = 100%),YeaW variant K138S,96%
same,O2 depletion activity (wild type = 100%),YeaW variant K138S,97%
same,L-carnitine depletion activity (wild type = 100%),YeaW variant D221K,81%
same,O2 depletion activity (wild type = 100%),YeaW variant D221K,76%
same,L-carnitine depletion activity (wild type = 100%),YeaW variant K104S,70%
same,O2 depletion activity (wild type = 100%),YeaW variant K104S,66%
same,L-carnitine depletion activity (wild type = 100%),YeaW variant D221S,91%
same,O2 depletion activity (wild type = 100%),YeaW variant D221S,99%
